Experimental data from patent publication US20240092922A1 (EUCURE BEIJING BIOPHARMA, published 2024).

T1: monkey (Rhesus macaque) 4-1BB (r4-1BB) on transfected CHO cells (monkey (Rhesus macaque), UniProt Q07011 24-255 (human entry))
T1 construct: also called rm4-1BB; CHO-r4-1BB
T1 chain: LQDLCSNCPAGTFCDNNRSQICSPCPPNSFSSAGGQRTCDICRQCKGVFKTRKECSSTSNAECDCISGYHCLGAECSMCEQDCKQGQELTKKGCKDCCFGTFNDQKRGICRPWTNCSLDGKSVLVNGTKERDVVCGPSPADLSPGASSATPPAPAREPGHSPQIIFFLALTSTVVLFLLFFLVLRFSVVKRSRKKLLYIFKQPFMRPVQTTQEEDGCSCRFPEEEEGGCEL


What was measured:
[1] = biological target: T2, human 4-1BB (h4-1BB) on transiently transfected CHO cells (human, UniProt Q07011 24-255); experiment: flow cytometry, CHO cells transfected with human 4-1BB, antibody at 1 µg/ml
T2 construct: also called TNFRSF9; CD137
Procedure: (§1) 25 μl CHO cells transiently transfected with human 4-1BB were added to each well in a plate. The purified antibodies were titrated to final concentrations of 10, 1, 0.1, 0.01, 0.001 μg/ml. The titrated antibodies were added to each well at 4° C. and incubated for 30 minutes.
(§2) After being washed with phosphate-buffered saline (PBS) (1200 rpm, 5 minutes) twice, 50 μl of FITC labeled anti-mouse IgG Fc antibody (anti-mIgG Fc-FITC) at 1:100 dilution was added into each well, and incubated for 30 minutes at 4° C., followed by PBS wash (1200 rpm, 5 minutes). The signal for FITC was detected by flow cytometry.

[2] = biological target: T2, human 4-1BB (h4-1BB) on transiently …; experiment: flow cytometry, CHO cells transfected with human 4-1BB, antibody at 0.01 µg/ml
Procedure: as §1, §2

[3] = biological target: T3, mouse 4-1BB (m4-1BB) on transfected CHO cells (mouse, UniProt P20334 24-256); experiment: flow cytometry on CHO-m4-1BB cells, anti-mouse-IgG-Fc-FITC (1:100)
T3 construct: also called CHO-m4-1BB
Procedure: (§3) 25 μl CHO cells were added to each well. 25 μl purified anti-h4-1BB antibodies (1 μg/ml) were added to each well and were incubated at 4° C. for 30 minutes.
(§4) After being washed with PBS (1200 rmp, 5 min) twice, 50 μl of FITC labeled anti-mouse IgG Fc antibody (anti-mIgG Fc-FITC) was added into each well at 1:100 dilution, followed by incubating at 4° C. for 30 minutes, and then PBS wash (1200 rmp, 5 min). In some cases, PE labeled anti-mouse IgG Fc antibody (anti-mIgG Fc-PE) was used to label the antibody instead, and was added into each tested well at 1:500 dilution. The signals for FITC and PE were determined by flow cytometry.

[4] = biological target: T2, human 4-1BB (h4-1BB) on transiently …; experiment: flow cytometry, CHO cells transfected with human 4-1BB, antibody at 0.1 µg/ml
Procedure: as §1, §2

[5] = biological target: T2, human 4-1BB (h4-1BB) on transiently …; experiment: flow cytometry, CHO cells transfected with human 4-1BB, antibody at 0.001 µg/ml
Procedure: as §1, §2

[6] = biological target: T2, human 4-1BB (h4-1BB) on transiently …; experiment: flow cytometry, CHO cells transfected with human 4-1BB, antibody at 10 µg/ml
Procedure: as §1, §2

[7] = biological target: T3, mouse 4-1BB (m4-1BB) on transfected CHO …; experiment: flow cytometry on CHO cells transfected with mouse 4-1BB
Procedure: as §3, §4

[8] = biological target: T1, monkey (Rhesus macaque) 4-1BB (r4-1BB) …; experiment: flow cytometry on transfected CHO cells;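 further: antibodies tested at 1 µg/ml on CHO cells for 30 min at 4 °C, binding detected with FITC- or PE-labeled anti-mouse IgG Fc secondary by flow cytometry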
Procedure: as §3, §4

[9] = biological target: T4, chimeric (mouse and human) 4-1BB (c4-1BB) on transfected CHO cells (chimeric (mouse and human)); experiment: flow cytometry on transfected CHO cells;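 further: antibodies tested at 1 µg/ml on CHO cells for 30 min at 4 °C, binding detected with FITC- or PE-labeled anti-mouse IgG Fc secondary by flow cytometry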
T4 construct: also called chi4-1BB; CHO-c4-1BB
Procedure: as §3, §4

| Binder | percentage of cells with FITC signal [1] [%] | percentage of cells with FITC signal [2] [%] | binding result [3] | percentage of cells with FITC signal [4] [%] | percentage of cells with FITC signal [5] [%] | percentage of cells with FITC signal [6] [%] | binding result [7] | binding result [8] | binding result [9] |
| --- | --- | --- | --- | --- | --- | --- | --- | --- | --- |
| 30-5F9 (antibody, V domains shown, mouse antibody purified from ascites) VH: QVQLKESGPGLVAPSQSLSITCTVSGFSLTTYDISWVRQPPGKGLEWLGVIWTGGGTNYNSSFMSRLSISKDNSKNQVFLKMNSLQVDDTAIYYCERVDYWGQGTTLTVSS VL: DVVMTQTPLSLPVSLGDQASISCRSSQSLVHSNGNTYLHWYLQKPGQSPKLLIYKVSNRFSGVPDRFSGSGSGTAFTFKISRVEAEDLGVYFCSQNTHVPWTFGGGTKLEIK | 56.2 | 0.72 | no binding (tested: 1 µg/ml) | 25.3 | 0.802 | 68.9 |  |  |  |
| 16-1C4 (antibody, V domains shown, mouse antibody purified from ascites) VH: QGQMQQSGAELVKPGASVKLSCKTSGFTFSSSYINWLKQKPGQSLEWIAWIFAGTGGTYYNQKFTGKAQLTVDTSSGTAYMQFSSLTTEDSAIYYCARHSPRATLFDFWGQGTTLTVSS VL: QIVLSQSPAILSASPGEKVTMTCRASSSVNHMHWYQQRTGFSPKAWIYATSNLASGVPARFSGSGSGTSYSLTISRVEAEDAATYYCQQWSSNPYTFGGGTKLEIK | 69 | 6.61 | no binding (tested: 1 µg/ml) | 49.7 | 0.316 | 69.1 |  |  |  |
| 45-2B3 (antibody, V domains shown, mouse antibody purified from ascites) VH: QVQLQQSGPELVKPGASVKISCKTSGYAFSTSWMNWVKQRPGQGLEWIGRIYPGDGDTDYNGRFKGKATLTADKSSSTAYLQLSSLTSVDSAVYFCARLDGYYEVFYFDYWGQGTTLTVSS VL: not shown | 51.8 | 0.622 |  | 12 | 0.504 | 62.2 | no binding (tested: 1 µg/ml) | binds | binds |
| 45-7E9 (antibody, V domains shown, mouse antibody purified from ascites) VH: QVQLKQSGPGLVQPSQSLSITCTVSGFSLTTYGVHWVRQPPGKGLEWLGVIWSDGNTDYNDAFISRLSITKDNSTSQVFFKMNGLQADDTAIYYCARNSITSVSFDCWGQGTTLTVSS VL: DIVMTQSQKFMSTSVGDRVSVTCKASQNVGTTVAWYQQRPGQSPKALICSASYRYSGVPDRFTGSGSGTDFTLTISNVQSEDLAEYFCQQYNSYPLTFGSGTKLEIK | 58.4 | 12.7 |  | 50 | 0.703 | 57.6 | no binding (tested: 1 µg/ml) | binds | binds |
| 45-7G9 (antibody, V domains shown, mouse antibody purified from ascites) VH: QVQLQQPGSALVRPGASVKLSCKASGYTFSNYWIHWVKQRHGQGLEWIGNIYPASDYTNYDEKFKNKGTLTVDTSSSTAYMHLSSLTSEDSAVYYCSRGYFGSLDYWGQGTSVTVSA VL: DILLTQSPAILSVNPGERVSFSCRASQPIGTGIHWYQQRTNGSPRLLIKSASESISGIPSRFSGSGSGTDFTLTINNVESDDVGDYYCQQSYSWPTTFGGGTKLKIN | 55.1 | 0.96 |  | 25.9 | 1 | 57.9 | no binding (tested: 1 µg/ml) | binds | binds |
| 45-8E2 (antibody, V domains shown, mouse antibody purified from ascites) VH: EVKLLESGGGLVQPGGSLKLSCAASGFDFSRYWMSWVRQAPGKGLEWIGEIHPDSSAINYTPSLKDKFIISRDNAKNTLYLQMSKVRSEDTALYYCARSYYGRVFDYWGQGTTLTVSS VL: DIVMTQSPATLSVTPGDRVSLSCRASQSISDYLHWYQQKSHESPRLLIKYASQSISGIPPRFSGSGSGSDFTLSINSVEPEDVGMYYCQDGHSFPPTFGAGTKLELK | 60.1 | 9.06 |  | 49.8 | 1.52 | 58.9 | no binding (tested: 1 µg/ml) | binds | binds |
| 54-8B11 (antibody, V domains shown, mouse antibody purified from ascites) VH: QIQLVQSGPELKKPGETVKISCKASKFTFTNYGMNWVKQAPGKALKWMGWINTYTGEPTYADDFKGRFDFSLETSATTAYLQINNLKNEDTATYFCARREYYPWVFVYWGQGTLVTVSA VL: ENVLTQSPAIMSASPGEKVTMTCSASSSVSYMHWYQQKSSTSPKLWIYDTSKLASGVPGRFSGSGSGNSYSLTISSMEAEDVATYYCFQGSGYPLTFGGGTKLEIK | 45 | 0.445 |  | 16.5 | 0.111 | 49.8 | no binding (tested: 1 µg/ml) | binds | binds |
| 55-8F6 (antibody, V domains shown, mouse antibody purified from ascites) VH: QVQLQQPGAELVRPGASVKLSCKASGYIFTSYWINWVKQRPGQGLEWIGNIYPSDSYTNYNQKFKDKATLTVDKSSSTAYMQLSSPTSEDSAVYYCTRFHYGSSPFDNWGQGTTLTVSS VL: DIQMTQSTSSLSASLGDRVTISCRASQDISHYLNWYQQKPDGTVKLLIYYTSRLHSGVPSRFSGSGSGTDYSLTISNLEQEDFATYFCQQGHTLPRTFGGGTKLEIK | 52.3 | 0.571 |  | 36.1 | 0.375 | 53.6 | no binding (tested: 1 µg/ml) | binds | binds |
| 61-6A7 (antibody, V domains shown, mouse antibody purified from ascites) VH: EVQLQQSGAELVRPGALVKLSCKASGFNIKDYYMHWVKRRPEQGLEWIGWIDPENGNTIYDPKFQDKASITADTSSNTAYLQLSSLTSEDTAVYYCAEGLPWYFDYWGQGTTLTVSS VL: QIILTQSPALMSASPGEKVTMTCSASSSVSDMNWYQQKPRSSPTPWIYLTSNLSSGVPDRFSGSGSGTSYSLTISSMEAEDAATYYCQQWSGNPLTFGAGTRLELK | 60.1 | 17 |  | 51.1 | 3.43 | 63 | no binding (tested: 1 µg/ml) | binds | binds |
| 69-3C2 (antibody, V domains shown, mouse antibody purified from ascites) VH: DVQLVESGGGLVQPGGSRKLSCAASGFSFSSFGMHWMRQAPEKGLEWVAYISSGSSAIYYADTVKGRFTISRDNPKNTLFLQMTSLRSEDTAMYYCARDWVDYWGQGTTLTVSS VL: DIQMTQSPASLSVSVGETVTITCRASENIYSNLVWYQQKQGKSPQLLVYTATKLTNGVPSRFSGSGSGTQYSLKINSLQSEDFGTYYCQHFWDTPYTFGGGTKLEMK | 62.9 | 26.2 |  | 52.3 | 0.183 | 58.5 | no binding (tested: 1 µg/ml) | binds | binds |
| 70-3F9 (antibody, V domains shown, mouse antibody purified from ascites) VH: QVQLQQPGAELVRPGASVKLSCKASGYTFTSYWINWVKQRPGQGLEWIGNIFPSDSYTNYNQKFKDRAKLTVDKSSSTAYMQLSSPTSEDSAVYYCTRFGSSGYPDYYTMEYWGQGTSVTVSS VL: DIQMTQSPASLSASVGETVTITCRASGNIDNYLAWYQQKQGKSPQLLVYNAKTLAEGVPSRFSGSGSGTEYSLKINSLQPEDFGSYHCQQYWTIPYTFGGGTKLEIK | 56.4 | 3.37 |  | 9.06 | 1.25 | 56.7 | no binding (tested: 1 µg/ml) | binds | binds |
| 70-6F10 (antibody, V domains shown, mouse antibody purified from ascites) VH: QVQLQQSGPELVKPGASVKISCKASGYAFNNSWMNWVKQRPGQGLEWIGRIYPGDGDTDYNGKFKGKATLTADKSSSTAYMQLSSLTSVDSAVYFCARLDGNYYYWYFDVWGAGTTVTVSS VL: not shown | 23.7 | 0.913 |  | 1.14 | 0.962 | 52.9 | no binding (tested: 1 µg/ml) | binds | binds |
